To fix the notation:
B1: PRT-524 (protein)
chain: MITSVWTKGVTPPTDFRKIVDGNIAYYHAPYKAGQGWYDITKAFDGGDNLLCGAATAGNMLHWWFDQNKEEIEAYLKKHPEKQKIIFNNQELFDLKAVINTKDSQTNSALFNYFKDKAFPNLSARRLGVFPDLVLDMFINGYYLNVYKTQTTDVNRTYQTKDRRGGIFDAVFTRGVQSKLLTERHDLKNKTLKEISDLIKQELTEGKALGLSHTYANVRINHVINLWGADFDSNGNLEAIYVTDSDTNASIGMKKYFVGVNSAGKVAISAKEIKEDNIGAQVLGLFTLSTGQDIWNQTNLEHHHHHH
B2: PRT-636 (protein)
chain: MQITSVWTKGVTPLTMDQFRNYNYDVIHAPYKPGQGWYDITKAFDGKDNLLCGAATAGNMLHWWFDQNKTEIEAYLSKHPEKQKIIFNNQELFDLKAAIDTKDSQTNSQLFNYFRDKAFPNLSARQLGVMPDLVLDMFINGYYLNVFKTQSTDVNRPYQDKDKRGGIFDAVFTRGDQTTLLTARHDLKNKGLNDISTIIKQELTEGKALALSHTYANVSISHVINLWGADFNAEGNLEAIYVTDSDANASIGMKKYFVGINAHGHVAISAKKIEGENIGAQVLGLFTLSSGKDIWQKLSLEHHHHHH
B3: PRT-473 (protein)
chain: MVTSVWTKGVTPPTDFRKIVDGNIAYYHAPYKAGQGWYDITKTFNGKDDLLCGAATAGNMLHWWFDQNKEQIENYLKKHPEKQKINFNGEQMFDVKEAIDTKDSQLDSKLFEYFKEKAFPYLSTKHLGVFPDHVIDMFINGYRLSLTNHGPTPVKRGSKDPRGGIFDAVFTRGDQSKLLTNRHDFKEKTLKEISDLIKQELTEGKALGISHTYANVRINHVINLWGADFDAEGNLEAIYVTDSDSNASIGMKKYFVGVNSNGKVAISAKEIEEDNIGAQVLGLFTLSTGQDIWNQTNLEHHHHHH
B4: PRT-505 (protein)
chain: MVTSVWTKGVTPPTDFIKGEDVFHAPYKAGQGWYDITKAFDGGDDLLCGAATAGNMLHWWFDQNKEYIEAYLKKHPEKQKIMFGDQELLDVRKAINTKGSQKNSELFNYFRDKAFPNLSARRLGVMPDLVLDMFINGYYLNVTKTQTTDVNRQEQEKDKRGGIFDAVFGRGDQTKLLTSRHDLKNKGLKEISDLIKQELTEGKALGLSHTYANVRINHVINLWGADFDSDGNLKAIYVTDSDSNASIGMKKYFVGVNSAGKVAISAKEIKEDNIGAQVLGLFTLSTGQKIWNKTNLEHHHHHH
B5: PRT-472 (protein)
chain: MVTSVWTKGVTPPTDFIYGEDVLHAPYKAGQGWYDITKTFNGKDDLLCGAATAGNMLHWWFDQNKEQIENYLKKHPEKQKINFNGEQMFDVKEAIDTKDSQLDSKLFEYFKEKAFPYLSTKHLGVFPDHVIDMFINGYRLSLTNHGPTPVKRGSKDPRGGIFDAVFTRGDQSKLLTNRHDLKNKTLKEISDLIKQELTEGKALGISHTYANVRINHVINLWGADFDAEGNLEAIYVTDSDSNASIGMKKYFVGVNSNGKVAISAKEIEEDNIGAQVLGLFTLSTGQDIWNQTNLEHHHHHH
B6: PRT-521 (protein)
chain: MVTSVWTKGVTPPADFTQGEDVFHAPYVANQGWYDITKTFNGKDNLLCGAATAGNMLHWWFDQNKEYIEAYLKKHPEKQKIIFNNQELFDLKAAINTKGSQKNSELFNYFRDKAFPNLSARRLGVFPDLVLDMFINGYYLNVTKTQTTDVNRTYQEKDKRGGIFDAVFTRGVQSKLLTSRHDLKNKGLKEISDLIKQELTEGKALGLSHTYANVRINHVINLWGADFDSDGNLKAIYVTDSDTNASIGMKKYFVGVNSAGKVAISAKEIKEDNIGAQVLGLFTLSTGQDIWNQTNLEHHHHHH
B7: PRT-499 (protein)
chain: MVTSVWTKGVTPPADFRKIVDGNIAYYHAPYVANQGWYDITKTFNGKDDLLCGAATAGNMLHWWFDQNKEYIEAYLKKHPEKQKIMFGDQELLDVRKAINTKGSQKNSELFNYFRDKAFPNLSARRLGVMPDLVLDMFINGYYLNVTKTQTTDVNRTYQEKDKRGGIFDAVFTRGDQSKLLTSRHDLKNKGLKEISDLIKQELTEGKALGLSHTYANVRINHVINLWGADFDSDGNLKAIYVTDSDSNASIGMKKYFVGVNSAGKVAISAKEIKEDNIGAQVLGLFTLSTGQDIWNQTNLEHHHHHH
B8: PRT-507 (protein)
chain: MITSVWTKGVTPPTDFIKGEDVFHAPYKAGQGWYDITKAFDGGDDLLCGAATAGNMLHWWFDQNKEEIEAYLKKHPEKQKIMFGDQELLDVRKVINTKDSQTNSALFNYFKDKAFPNLSARRLGVMPDLVLDMFINGYYLNVYKTQTTDVNRTYQTKDRRGGIFDAVFTRGDQSKLLTERHDFKEKTLKEISDLIKQELTEGKALGLSHTYANVRINHVINLWGADFDSNGNLEAIYVTDSDSNASIGMKKYFVGVNSAGKVAISAKEIKEDNIGAQVLGLFTLSTGQDIWNQTNLEHHHHHH
B9: PRT-520 (protein)
chain: MVTSVWTKGVTPPTDFRKIVDGNIAYYHAPYKAGQGWYDITKAFDGGDNLLCGAATAGNMLHWWFDQNKEYIEAYLKKHPEKQKIIFNNQELFDLKAAINTKGSQKNSELFNYFRDKAFPNLSARRLGVFPDLVLDMFINGYYLNVTKTQTTDVNRTYQEKDKRGGIFDAVFTRGVQSKLLTSRHDLKNKGLKEISDLIKQELTEGKALGLSHTYANVRINHVINLWGADFDSDGNLKAIYVTDSDTNASIGMKKYFVGVNSAGKVAISAKEIKEDNIGAQVLGLFTLSTGQDIWNQTNLEHHHHHH
B10: PRT-484 (protein)
chain: MVTSVWTKGVTPPTDFRKIVDGNIAYYHAPYKAGQGWYDITKAFDGGDNLLCGAATAGNMLHWWFDQNKDQIEAYLKEHPEKQKIIFNNQELFDLKAAIDTKDDQTNSELFNYFKEKAFPYLSTKHLGVFPDHVLDMFINGYRLSLTNHGPTPVKEGSKDKRGGIFDAVFTRGVQSKLLTSRHDLKNKTLKEISDLIKQELTEGKALALSHTYANVRINHVINLWGADFDSNGNLEAIYVTDSDTNASIGMKKYFVGVNSAGKVAISAKEIEDDNIGAQVLGLFTLSTGQDIWNQTNLEHHHHHH
B11: PRT-488 (protein)
chain: MVTSVWTKGVTPPTDFRKIVDGNIAYYHAPYKAGQGWYDITKAFDGGDNLLCGAATAGNMLHWWFDQNKDQIERYLKEHPEKQKIIFNNQELFDLKAAIDTKDSQTNSELFNYFKEKAFPYLSTKHLGVFPDHVLDMFINGYRLSLTNHGPTPVKEGSKDKRGGIFDAVFTRGVQSKLLTSRHDLKNKTLKEISDLIKQELTEGKALGLSHTYANVRINHVINLWGADFDSEGNLKAIYVTDSDTNASIGMKKYFVGVNSAGKVAISAKEIKEDNIGAQVLGLFTLSTGQDIWNQTNLEHHHHHH
B12: PRT-447 (protein)
chain: MVTSVWTKGVTPPTDFIKGEDVFHAPYKAGQGWYDITKAFDGGDDLLCGAATAGNMLHWWFDQNKDQIEAYLKEHPEKQKINFNGEQMFDVKEAIDTKDDQTNSELFNYFKEKAFPYLSTKHLGVFPDHVLDMFINGYRLSLTNHGPTPVKEGSKDPRGGIFDAVFTRGDQSKLLTSRHDFKEKTLKEISDLIKQELTEGKALALSHTYANVRINHVINLWGADFDSNGNLEAIYVTDSDSNASIGMKKYFVGVNSAGKVAISAKEIEDDNIGAQVLGLFTLSTGQDIWNQTNLEHHHHHH
B13: PRT-459 (protein)
chain: MVTSVWTKGVTPPTDFIKGEDVFHAPYKAGQGWYDITKAFDGGDDLLCGAATAGNMLHWWFDQNKDQIERYLKEHPEKQKINFNGEQMFDVKEAIDTKDSQTNSELFNYFKEKAFPYLSTKHLGVFPDHVLDMFINGYRLSLTNHGPTPVKEGSKDPRGGIFDAVFTRGDQSKLLTSRHDFKEKTLKEISDLIKQELTEGKALGLSHTYANVRINHVINLWGADFDSEGNLKAIYVTDSDSNASIGMKKYFVGVNSAGKVAISAKEIKEDNIGAQVLGLFTLSTGQDIWNQTNLEHHHHHH

The target of this series is pooled human IgG (human IgG1,2,3 and 4).
B1 showed an Enzyme Activity Endpoint Assay (purified): Fab′2 of 474 ng/µL, an Enzyme Activity Endpoint Assay (purified): Fc of 285 ng/µL, an Enzyme Activity Endpoint Assay (purified): IgG of 676 ng/µL and an Enzyme Activity Endpoint Assay (purified): scIgG of 0 ng/µL.

Regarding B2, the Enzyme Activity Endpoint Assay (purified): Fab′2 came to 12 ng/µL, the Enzyme Activity Endpoint Assay (purified): Fc came out at 17 ng/µL, the Enzyme Activity Endpoint Assay (purified): IgG is 0 ng/µL and the Enzyme Activity Endpoint Assay (purified): scIgG is 0 ng/µL.

Turning to B3, the Enzyme Activity Endpoint Assay (purified): Fab′2 was 1340 ng/µL, the Enzyme Activity Endpoint Assay (purified): Fc is 384 ng/µL, the Enzyme Activity Endpoint Assay (purified): IgG is 59 ng/µL and the Enzyme Activity Endpoint Assay (purified): scIgG worked out at 0 ng/µL.

Turning to B4, the Enzyme Activity Endpoint Assay (purified): Fab′2 is 37 ng/µL, the Enzyme Activity Endpoint Assay (purified): Fc was determined as 148 ng/µL, the Enzyme Activity Endpoint Assay (purified): IgG is 609 ng/µL and the Enzyme Activity Endpoint Assay (purified): scIgG was 752 ng/µL.

B5 returned an Enzyme Activity Endpoint Assay (purified): Fab′2 of 1130 ng/µL, an Enzyme Activity Endpoint Assay (purified): Fc of 386 ng/µL, an Enzyme Activity Endpoint Assay (purified): IgG of 0 ng/µL and an Enzyme Activity Endpoint Assay (purified): scIgG of 0 ng/µL.

For the protein B6, the Enzyme Activity Endpoint Assay (purified): Fab′2 stood at 0 ng/µL, the Enzyme Activity Endpoint Assay (purified): Fc was determined as 13 ng/µL, the Enzyme Activity Endpoint Assay (purified): IgG was found to be 0 ng/µL and the Enzyme Activity Endpoint Assay (purified): scIgG came out at 0 ng/µL.

Consider B7, for which the Enzyme Activity Endpoint Assay (purified): Fab′2 stood at 637 ng/µL, the Enzyme Activity Endpoint Assay (purified): Fc turned out to be 365 ng/µL, the Enzyme Activity Endpoint Assay (purified): IgG is 436 ng/µL and the Enzyme Activity Endpoint Assay (purified): scIgG turned out to be 45 ng/µL.

Turning to B8, the Enzyme Activity Endpoint Assay (purified): Fab′2 was 927 ng/µL, the Enzyme Activity Endpoint Assay (purified): Fc is 355 ng/µL, the Enzyme Activity Endpoint Assay (purified): IgG came out at 112 ng/µL and the Enzyme Activity Endpoint Assay (purified): scIgG turned out to be 0 ng/µL.

The protein B9 displayed an Enzyme Activity Endpoint Assay (purified): Fab′2 of 271 ng/µL, an Enzyme Activity Endpoint Assay (purified): Fc of 265 ng/µL, an Enzyme Activity Endpoint Assay (purified): IgG of 470 ng/µL and an Enzyme Activity Endpoint Assay (purified): scIgG of 475 ng/µL.

Turning to B10, the Enzyme Activity Endpoint Assay (purified): Fab′2 turned out to be 143 ng/µL, the Enzyme Activity Endpoint Assay (purified): Fc stood at 277 ng/µL, the Enzyme Activity Endpoint Assay (purified): IgG worked out at 173 ng/µL and the Enzyme Activity Endpoint Assay (purified): scIgG worked out at 973 ng/µL.

The protein B11 displayed an Enzyme Activity Endpoint Assay (purified): Fab′2 of 134 ng/µL, an Enzyme Activity Endpoint Assay (purified): Fc of 246 ng/µL, an Enzyme Activity Endpoint Assay (purified): IgG of 216 ng/µL and an Enzyme Activity Endpoint Assay (purified): scIgG of 803 ng/µL.

With B12, the Enzyme Activity Endpoint Assay (purified): Fab′2 worked out at 376 ng/µL, the Enzyme Activity Endpoint Assay (purified): Fc stood at 255 ng/µL, the Enzyme Activity Endpoint Assay (purified): IgG came out at 445 ng/µL and the Enzyme Activity Endpoint Assay (purified): scIgG is 0 ng/µL.

For B13, the Enzyme Activity Endpoint Assay (purified): Fab′2 was 137 ng/µL, the Enzyme Activity Endpoint Assay (purified): Fc is 193 ng/µL, the Enzyme Activity Endpoint Assay (purified): IgG came out at 373 ng/µL and the Enzyme Activity Endpoint Assay (purified): scIgG turned out to be 415 ng/µL.

These data come from patent US20250027068.
